The values below come from publication PMC11958688.

Common to all, as to assay: fluorescence polarisation; FITC-labelled peptide fixed at 4 nM, arrestin titrated (0-50 μM; 0-3.20 μM for C-tail_6P); 20 mM HEPES pH 7.4, 100 mM NaCl, 0.01% DDM; room temperature, 30 min; One Site–Total fit; triplicate
(In general: Fluorescence polarisation rises when a labelled molecule tumbles more slowly, as on binding a larger partner.)

Assay [1] concerns the target NTSR1 C-tail peptide with hexa-phosphorylation at Ser401/Ser403/Ser404 and Thr407/Ser409/Ser410 (human).
Assay [2] concerns the target NTSR1 C-tail peptide phosphorylated at Thr407/Ser409/Ser410 (human).
Assay [3] deals with NTSR1 C-tail peptide phosphorylated at Ser401/Ser403/Ser404 (human).

By Kd is commonly meant a measure of binding affinity in units of concentration. Regarding “human βArr1 truncated at residue 382 (constitutively active variant) (from UniProt P49407 1-382) (domain or fragment)”, the values for the Kd in assay [1], in assay [2] and in assay [3] were 0.035 µM, 3.77 µM and 5.11 µM, respectively.
